According to patent US6858210B1, “Therapeutic and diagnostic domain 1 β2GPI polypeptides and methods of using same” (La Jolla Pharmaceutical Co., priority 1998, dated 2005):

B1: 1234-: recombinant β2GPI deletion mutant with domains 1, 2, 3, 4 (protein)
chain: GRTCPKPDDLPFSTVVPLKTFYEPGEEITYSCKPGYVSRGGMRKFICPLTGLWPINTLKCTPRVCPFAGILENGAVRYTTFEYPNTISFSCNTGFYLNGADSAKCTEEGKWSPELPVCAPIICPPPSIPTFATLRVYKPSAGNNSLYRDTAVFECLPQHAMFGNDTITCTTHGNWTKLPECREVKCPFPSRPDNGFVNYPAKPTLYYKDKATFGCHDGYSLDGPEEIECTKLGNWSAMPSCGHHHHHH
B2: --345: recombinant β2GPI deletion mutant with domains 3, 4, 5 (protein)
chain: GRIICPPPSIPTFATLRVYKPSAGNNSLYRDTAVFECLPQHAMFGNDTITCTTHGNWTKLPECREVKCPFPSRPDNGFVNYPAKPTLYYKDKATFGCHDGYSLDGPEEIECTKLGNWSAMPSCKASCKLPVKKATVVYQGERVKIQEKFKNGMLHGDKVSFFCKNKEKKCSYTEDAQCIDGTIEVPKCFKEHSSLAFWKTDASDVKPCGHHHHHH
B3: 123--: recombinant β2GPI deletion mutant with domains 1, 2, 3 (protein)
chain: GRTCPKPDDLPFSTVVPLKTFYEPGEEITYSCKPGYVSRGGMRKFICPLTGLWPINTLKCTPRVCPFAGILENGAVRYTTFEYPNTISFSCNTGFYLNGADSAKCTEEGKWSPELPVCAPIICPPPSIPTFATLRVYKPSAGNNSLYRDTAVFECLPQHAMFGNDTITCTTHGNWTKLPECGHHHHHH

tested on: affinity purified β2GPI-dependent antiphospholipid antibody; experiment: Direct binding ELISA, nickel chelate-coated wells charged with recombinant β2GPI proteins (no cardiolipin); parameters: species or system human; details: Ab 6203; O.D. at 550 nm
Description: (§1) Nickel Chelate-coated microwell plates (NCP 010 00 Xenopore Corp. 374 Midland Ave. Saddle Brook, N.J. USA) were coated with 50 μl of serial dilutions of the various recombinant β2GPI, in PBS, at room temperature for 2 hours. The plates were washed three times with PBS and blocked with 75 μl of a 1% gelatin (Sigma #G-2500) in PBS for one hour room temperature. […] The plates were washed three times with PBS, 50 μl of alkaline phosphatase conjugated anti-immunoglobulin (anti-human IgG, gamma chain specific, Zymed #62-8422) or anti-rabbit IgG (Zymed #62-6122) diluted appropriately in 1% gelatin was added and incubated at 37° C. for one hour. The plates were washed three times with PBS, 50 μl of alkaline phosphatase PPMP chromogenic substrate solution was added and incubated for 30 minutes at room temperature. The optical density, at 550 nm, was determined by reading the plates in a microplate autoreader (Bio-Teck Instruments, model EL311).
(§2) Seven to nine different recombinant β2GPI mutant proteins were examined to determine if they could support the direct binding of affinity purified β2GPI-dependent antiphospholipid antibody preparations in the absence of anionic phospholipid. All recombinant mutant β2GPI were assayed with affinity purified β2GPI-dependent antiphospholipid antibody preparations from 11 different patients. Each mutant recombinant β2GPI protein was tested, in a dose dependent fashion and GST-6his was included as a negative control. The recombinant mutant β2GPI proteins were bound to nickel coated microtiter plates via their 6-his tail. All recombinant mutant β2GPI proteins tested bound rabbit anti-β2GPI showing that they were assessable by antibody (FIG. 5).

Molecule | Maximum O.D.
B1 | 0.668
B2 | 0.072
B3 | 0.938

same assay, conditions: Ab 6501; O.D. at 550 nm

Molecule | Maximum O.D.
B1 | 0.628
B2 | 0.030
B3 | 0.909

same assay, conditions: Ab 6626; O.D. at 550 nm

Molecule | Maximum O.D.
B1 | 0.563
B2 | 0.022
B3 | 1.250

same assay, conditions: Ab 6632; O.D. at 550 nm

Molecule | Maximum O.D.
B1 | 0.003
B2 | 0.004
B3 | 0.121

same assay, conditions: Ab 6641; O.D. at 550 nm

Molecule | Maximum O.D.
B1 | 0.145
B2 | 0.019
B3 | 0.530

same assay, conditions: Ab 6644; O.D. at 550 nm

Molecule | Maximum O.D.
B1 | 0.768
B2 | 0.048
B3 | 1.020

same assay, conditions: Ab 6652; O.D. at 550 nm

Molecule | Maximum O.D.
B1 | 0.135
B2 | 0.016
B3 | 0.320

same assay, conditions: Ab 6701; O.D. at 550 nm

Molecule | Maximum O.D.
B1 | 0.715
B2 | 0.002
B3 | 0.841

same assay, conditions: Ab 7008; O.D. at 550 nm

Molecule | Maximum O.D.
B1 | 0.149
B2 | 0.018
B3 | 0.360

same assay, conditions: Ab 7015; O.D. at 550 nm

Molecule | Maximum O.D.
B1 | 0.454
B2 | 0.042
B3 | 1.160

same assay, conditions: Ab 7101; O.D. at 550 nm

Molecule | Maximum O.D.
B1 | 0.843
B2 | 0.042
B3 | 0.951

tested on: affinity purified β2GPI-dependent antiphospholipid antibody; experiment: Competitive inhibition ELISA: recombinant β2GPI proteins compete for antibody binding to coated full length recombinant β2GPI; parameters: species or system human; details: Ab 6203
Description: Microtiter plates (MaxiSorp™, Nalge Nunc International, Denmark) were coated with 50 μl of full length recombinant β2GPI at 10 μg/ml in 0.1 M bicarbonate, pH 9.5, incubated overnight at 4° C., washed three times with 0.15 M PBS, pH 7.2, and blocked for one hour at room temperature with 75 μl of 2% Non-fat Dried Milk (Carnation, 2% NFDM). Test inhibitors were diluted in 2% NFDM and 25 μl of each dilution was added to coated wells. Affinity purified β2GPI-dependent antiphospholipid antibody was diluted in 2% NFDM and 25 μl, of a constant concentration, was added to the wells, including a group of wells that had no inhibitor, which acted as the positive controls. The contents of the wells were mixed and the plates were incubated at 37° C. for one hour. The plates were washed three times with PBS, 50 μl of alkaline phosphatase conjugated anti-human IgG, gamma chain specific, (Zymed #62-8422) diluted appropriately in 2% NFDM was added and incubated at 37° C. for one hour. The plates were washed three times with PBS, 50 μl of alkaline phosphatase PPMP chromogenic substrate solution was added and incubated for 30 minutes, at room temperature. The Optical Density, at 550 nm, was determined by reading the plates in a microplate autoreader (Bio-Teck Instruments, model EL3 11). The percent inhibition was determined by dividing the OD550 obtained in the presence of inhibitor by the mean OD550 obtained from the wells without inhibitor and then multiplying by 100 (more particularly, [mean A550 obtained from control wells without inhibitor less A550 of background] minus [A550 obtained in presence of inhibitor less A550 of background] divided by [mean A550 obtained from control wells without inhibitor less A550 of background] times 100).
Seven to nine different recombinant β2GPI mutant proteins were used to determine the antigenic specificity of affinity purified β2GPI-dependent antiphospholipid antibody preparations from 13 different patients. Each mutant recombinant β2GPI protein was tested, in a dose dependent fashion, for its ability to inhibit affinity purified β2GPI-dependent antiphospholipid antibody from binding to full length recombinant β2GPI. The following values were also observed for domain 1 only recombinant protein (1 - - - -; see Table 2 for designations): […]

Max (maximum inhibition observed at concentrations tested) | Molecule
30% | B1
10% | B2
75% | B3

same assay, conditions: Ab 6203; read-out: 50% (concentration to give 50% inhibition)

IC50 | Molecule
> 8000 nM | B1
> 50000 nM | B2
1000 nM | B3

same assay, conditions: Ab 6501

Max (maximum inhibition observed at concentrations tested) | Molecule
30% | B1
15% | B2
85% | B3

same assay, conditions: Ab 6501; read-out: 50% (concentration to give 50% inhibition)

IC50 | Molecule
> 8000 nM | B1
> 50000 nM | B2
800 nM | B3

same assay, conditions: Ab 6509

Max (maximum inhibition observed at concentrations tested) | Molecule
80% | B1
20% | B2
90% | B3

same assay, conditions: Ab 6509; read-out: 50% (concentration to give 50% inhibition)

IC50 | Molecule
3000 nM | B1
> 15000 nM | B2
300 nM | B3

same assay, conditions: Ab 6626

Max (maximum inhibition observed at concentrations tested) | Molecule
40% | B1
20% | B2
90% | B3

same assay, conditions: Ab 6626; read-out: 50% (concentration to give 50% inhibition)

IC50 | Molecule
> 8000 nM | B1
> 50000 nM | B2
800 nM | B3

same assay, conditions: Ab 6632

Max (maximum inhibition observed at concentrations tested) | Molecule
60% | B1
20% | B2
90% | B3

same assay, conditions: Ab 6632; read-out: 50% (concentration to give 50% inhibition)

IC50 | Molecule
2000 nM | B1
> 50000 nM | B2
200 nM | B3

same assay, conditions: Ab 6641

Max (maximum inhibition observed at concentrations tested) | Molecule
60% | B1
10% | B2
60% | B3

same assay, conditions: Ab 6641; read-out: 50% (concentration to give 50% inhibition)

IC50 | Molecule
2000 nM | B1
> 15000 nM | B2
4000 nM | B3

same assay, conditions: Ab 6644

Max (maximum inhibition observed at concentrations tested) | Molecule
50% | B1
10% | B2
90% | B3

same assay, conditions: Ab 6644; read-out: 50% (concentration to give 50% inhibition)

IC50 | Molecule
8000 nM | B1
> 50000 nM | B2
700 nM | B3

same assay, conditions: Ab 6652

Max (maximum inhibition observed at concentrations tested) | Molecule
100% | B1
30% | B2
95% | B3

same assay, conditions: Ab 6652; read-out: 50% (concentration to give 50% inhibition)

IC50 | Molecule
500 nM | B1
> 15000 nM | B2
300 nM | B3

same assay, conditions: Ab 6701

Max (maximum inhibition observed at concentrations tested) | Molecule
30% | B1
20% | B2
95% | B3

same assay, conditions: Ab 6701; read-out: 50% (concentration to give 50% inhibition)

IC50 | Molecule
> 8000 nM | B1
> 15000 nM | B2
300 nM | B3

same assay, conditions: Ab 7008

Max (maximum inhibition observed at concentrations tested) | Molecule
50% | B1
20% | B2
80% | B3

same assay, conditions: Ab 7008; read-out: 50% (concentration to give 50% inhibition)

IC50 | Molecule
> 8000 nM | B1
> 50000 nM | B2
400 nM | B3

same assay, conditions: Ab 7015

Max (maximum inhibition observed at concentrations tested) | Molecule
50% | B1
10% | B2
90% | B3

same assay, conditions: Ab 7015; read-out: 50% (concentration to give 50% inhibition)

IC50 | Molecule
8000 nM | B1
> 50000 nM | B2
700 nM | B3

same assay, conditions: Ab 7101

Max (maximum inhibition observed at concentrations tested) | Molecule
20% | B1
5% | B2
70% | B3

same assay, conditions: Ab 7101; read-out: 50% (concentration to give 50% inhibition)

IC50 | Molecule
> 8000 nM | B1
> 50000 nM | B2
3000 nM | B3

same assay, conditions: Ab 7104

Max (maximum inhibition observed at concentrations tested) | Molecule
90% | B1
20% | B2
98% | B3

same assay, conditions: Ab 7104; read-out: 50% (concentration to give 50% inhibition)

IC50 | Molecule
700 nM | B1
> 50000 nM | B2
1000 nM | B3

tested on: rabbit anti-β2GPI; experiment: Direct binding ELISA, nickel chelate-coated wells, rabbit antibody; details: O.D. at 550 nm
Description: as §1, §2

Molecule | Maximum O.D.
B1 | 1.708
B2 | 1.993
B3 | 1.971
